Laboratory results from PMC3902928, “Nuclear ubiquitination by FBXL5 modulates Snail1 DNA binding and stability” (Nucleic Acids Research, 2013).

Columns and labels:
GST-FBXL5 (pGEX-6P-1) = GST-FBXL5 (pGEX-6P-1) (UniProt Q9UKA1); experiment: pull-down; GST or GST-FBXL5 protein on glutathione-sepharose with extracts from transfected HEK293T cells; western blot
[1] = biological target: T1, 3xFlag-FBXL5 (baculovirus) (UniProt Q9UKA1 1-691); experiment: pull-down; 0.2 pmol 3xFlag-FBXL5 incubated with 2.5 pmol GST or GST-Snail1 as baits on glutathione-sepharose; western blot; conditions: both partners purified
T1 construct: FBXL5; pFastBac1 3xFlag-FBXL5 provided by Dr Bruick; source: also co-infected with 6xHis-Skp1, HA-Cullin1 and Rbx1 for the SCF^FBXL5 complex; not shown: 3xFlag, N-terminal, kept
T1 sequence (looked up): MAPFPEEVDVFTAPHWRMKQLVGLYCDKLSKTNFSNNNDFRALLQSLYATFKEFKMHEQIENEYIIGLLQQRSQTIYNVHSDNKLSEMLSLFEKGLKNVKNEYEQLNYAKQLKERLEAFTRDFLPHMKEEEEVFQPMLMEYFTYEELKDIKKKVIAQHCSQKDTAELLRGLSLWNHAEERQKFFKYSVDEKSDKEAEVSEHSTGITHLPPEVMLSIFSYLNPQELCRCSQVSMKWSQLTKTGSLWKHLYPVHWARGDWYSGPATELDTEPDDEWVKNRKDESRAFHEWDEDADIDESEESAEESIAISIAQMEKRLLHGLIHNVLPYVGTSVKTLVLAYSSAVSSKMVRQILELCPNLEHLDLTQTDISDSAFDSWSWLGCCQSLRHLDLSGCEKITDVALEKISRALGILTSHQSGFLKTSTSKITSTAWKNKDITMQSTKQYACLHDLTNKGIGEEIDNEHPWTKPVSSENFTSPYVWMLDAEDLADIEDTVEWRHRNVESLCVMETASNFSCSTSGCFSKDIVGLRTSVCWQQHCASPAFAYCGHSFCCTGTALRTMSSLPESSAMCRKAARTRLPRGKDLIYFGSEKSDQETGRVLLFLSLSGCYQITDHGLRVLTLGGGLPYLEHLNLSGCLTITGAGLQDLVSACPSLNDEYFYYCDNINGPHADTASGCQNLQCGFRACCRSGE

Work on “GFP-Snail1CT ΔZnF3-4 (from UniProt Q02085 152-208) (domain or fragment)” yielded a decrease of binding against the full C-terminal domain (GST-FBXL5 (pGEX-6P-1)) greater than 50%.

“GFP-Snail1CT ΔZnF1 (from UniProt Q02085 181-264) (domain or fragment)” was tested, and the decrease of binding against the full C-terminal domain (GST-FBXL5 (pGEX-6P-1)) was 45%.

“GFP-Snail1CT ΔZnF1-2 (from UniProt Q02085 209-264) (domain or fragment)” gave a decrease of binding against the full C-terminal domain (GST-FBXL5 (pGEX-6P-1)) of 80%.

B1: GST-Snail1-HA (baculovirus) (natural protein, UniProt Q02085 1-264, looked up)
chain: MPRSFLVRKPSDPRRKPNYSELQDACVEFTFQQPYDQAHLLAAIPPPEVLNPAASLPTLIWDSLLVPQVRPVAWATLPLRESPKAVELTSLSDEDSGKSSQPPSPPSPAPSSFSSTSASSLEAEAFIAFPGLGQLPKQLARLSVAKDPQSRKIFNCKYCNKEYLSLGALKMHIRSHTLPCVCTTCGKAFSRPWLLQGHVRTHTGEKPFSCSHCNRAFADRSNLRAHLQTHSDVKRYQCQACARTFSRMSLLHKHQESGCSGGPR
notes: Snail1; insert subcloned from pcDNA3-Snail1-HA through pEBG-2T into pFastBac1; source: Sf9, baculovirus-infected, purified; not shown: GST, N-terminal, kept
B1: binds [1].
